# Test results: IntAct's records for PubMed 16326715
# B1: Cytochrome b-245 light chain (Homo sapiens), P13498 (parent)
# chain: MGQIEWAMWANEQALASGLILITGGIVATAGRFTQWYFGAYSIVAGVFVCLLEYPRGKRKKGSTMERWGQKYMTAVVKLFGPFTRNYYVRAVLHLLLSVPAGFLLATILGTACLAIASGIYLLAAVRGEQWTPIEPKPRERPQIGGTIKQPPSNPPPRPPAEARKKPSEEEAAVAAGGPPGGPQVNPIPVTDEVV
# B2: Neutrophil cytosol factor 1 (Homo sapiens), P14598 (parent)
# chain: MGDTFIRHIALLGFEKRFVPSQHYVYMFLVKWQDLSEKVVYRRFTEIYEFHKTLKEMFPIEAGAINPENRIIPHLPAPKWFDGQRAAENRQGTLTEYCSTLMSLPTKISRCPHLLDFFKVRPDDLKLPTDNQTKKPETYLMPKDGKSTATDITGPIILQTYRAIANYEKTSGSEMALSTGDVVEVVEKSESGWWFCQMKAKRGWIPASFLEPLDSPDETEDPEPNYAGEPYVAIKAYTAVEGDEVSLLEGEAVEVIHKLLDGWWVIRKDDVTGYFPSMYLQKSGQDVSQAQRQIKRGAPPRRSSIRNAHSIHQRSRKRLSQDAYRRNSVRFLQQRRRQARPGPQSPGSPLEEERQTQRSKPQPAVPPRPSADLILNRCSESTKRKLASAV
# partner: B1 chain
# Variants of: B1
# Conditions: with ncf1_human NCF1, P14598
row,effect of a mutation on the interaction,Variant
1,decreasing interaction,A163G;R164G

# Variants of: B2
# Conditions: with cy24a_human CYBA, P13498
row,effect of a mutation on the interaction,Variant
1,decreasing interaction,I164A
2,decreasing interaction,F209A
